Measurements reported in patent US20050079613A1, “Downregulation of cell surface glycoproteins by a family of human ubiquitin ligases” (Oregon Health & Science University, priority 2002, published 2005).
Entries after “also recorded” stand apart in the source; their conditions may differ.

B1: MARCH-I: human membrane-associated RING-CH transmembrane ubiquitin ligase, SEQ ID NOS:39 and 54; expressed by transfection or as GST-RING-CH domain (protein, listed as Homo sapiens)
chain: MTSSHVCCNFLNMWKKSKISTMYYLNQDAKLSNLFLQASSPTTGTAPRSQSRLSVCPSTQDICRICHCEGDEESPLITPCRCTGTLRFVHQSCLHQWIKSSDTRCCELCKYDFIMETKLKPLRKWEKLQMTTSERRKIFCSVTFHVIAITCVVWSLYVLIDRTAEEIKQGNDNGVLEWPFWTKLVVVAIGFTGGLVFMYVQCKVYVQLWRRLKAYNRVIFVQNCPDTAKKLEKNFSCNVNTDIKDAVVVPVPQTGANSLPSAEGGPPEVVSV
B2: MARCH-III: human membrane-associated RING-CH ubiquitin ligase, SEQ ID NOS:43 and 56 (protein, listed as Homo sapiens)
chain: MTTSRCSHLPEVLPDCTSSAAPVVKTVEDCGSLVNGQPQYVMQVSAKDGQLLSTVVRTLATQSPFNDRPMCRICHEGSSQEDLLSPCECTGTLGTIHRSCLEHWLSSSNTSYCELCHFRFAVERKPRPLVEWLRNPGPQHEKRTLFGDMVCFLFITPLATISGWLCLRGAVDHLHFSSRLEAVGLIALTVALFTIYLFWTLVSFRYHCRLYNEWRRTNQRVILLIPKSVNVPSNQPSLLGLHSVKRNSKETVV
B3: MARCH-VIII: human membrane-associated RING-CH ubiquitin ligase, SEQ ID NOS:53 and 61 (protein, listed as Homo sapiens)
chain: MSMPLHQISAIPSQDAISARVYRSKTKEKEREEQNEKTLGHFMSHSSNISKAGSPPSASAPAPVSSFSRTSITPSSQDICRICHCEGDDESPLITPCHCTGSLHFVHQACLQQWIKSSDTRCCELCKYEFIMETKLKPLRKWEKLQMTSSERRKIMCSVTFHVIAITCVVWSLYVLIDRTAEEIKQGQATGILEWPFWTKLVVVAIGFTGGLLFMYVQCKVYVQLWKRLKAYNRVIYVQNCPETSKKNIFEKSPLTEPNFENKHGHGICHSDTNSSCCTEPEDTGAEIIHV
B4: full-length MARCH-IV: MARCH-IV full length, which contains an N-terminal extension of 63 amino acids (protein)
chain: WYCYGLCAPAPQMLRHQGLLKCRCRMLFNDLKVFLLRRPPQAPLPMHGDPQPPGLAANNTLPALGAGGWAGWRGPREVVGREPPPVPPPPPLPPSSVEDDWGGPATEPPASLLSSASSDDFCKEKTEDRYSLGSSLDSGMRTPLCRICFQGPEQGELLSPCRCDGSVKCTHQPCLIKWISERGCWSCELCYYKYHVIAISTKNPLQWQAISLTVIEKVQVAAAILGSLFLIASISWLIWSTFSPSARWQRQDLLFQICYGMYGFMDVVCIGLIIHEGPSVYRIFKRWQAVNQQWKVLNYDKTKDLEDQKAGGRTNPRTSSSTQANIPSSEEETAGTPAPEQGPAQAAGHPSGPLSHHHCAYTILHILSHLRPHEQRSPPGSSRELVMRVTTV
B5: ICPO: purified RING domain (amino acids 1-241) of herpes simplex ICP0 as GST fusion, positive control (protein)
chain: MEPRPGASTRRPEGRPQREPAPDVWVFPCDRDLPDSSDSEAETEVGGRGDADHHDDDSASEADSTDTELFETGLLGPQGVDGGAVSGGSPPREEDPGSCGGAPPREDGGSDEGDVCAVCTDEIAPHLRCDTFPCMHRFCIPCMKTWMQLRNTCPLCNAKLVYLIVGVTPSGSFSTIPIVNDPQTRMEAEEAVRAGTAVDFIWTGNQRFAPRYLTLGGHTVRALSPTHPEPTTDEDDDDLDD
modifications: left off: a dimerising Fc or GST
notes: purified RING domain (amino acids 1-241) of herpes simplex ICP0 as GST fusion, positive control

Tests used:
HLA class I (MHC I) = test: Surface expression of endogenous MHC I on transfected HeLa cells, flow cytometry; type: cell-based, human; conditions: HeLa cells transfected with MARCH plasmid and GFP, 24 h post-transfection
Procedure: (§1) Flow cytometry. Cells were removed from tissue culture dishes with 0.05% Trypsin-EDTA (Invitrogen), washed with ice-cold PBS, and incubated with appropriate antibody for 30 minutes at 4° C. The cells were washed with ice-cold PBS and either resuspended in ice-cold PBS or incubated with PE-conjugated anti-mouse secondary antibody (DAKO) and washed again before analysis with a BD Biosciences (San Jose, Calif.) FACScalibur flow cytometer.
(§2) The ability to downregulate MHC I is common to KSHV-K3, KSHV-K5, MHV68-K3 and MV-M153R (Coscoy and Ganem, 2000, supra; Guerin et al., 2002, supra; Ishido et al., 2000b supra; Stevenson et al., 2000, supra). Additional substrates are ICAM-1 and B7.2 (but not B7.1) for KSHV-K5, as well as CD95 and CD4 for M153R (Coscoy and Ganem, 2001, supra; Guerin et al., 2002, supra; Ishido et al., 2000a, supra; Mansouri et al., 2003, supra). Since only low copy numbers were detected in HeLa cells for transcripts corresponding to each of the MARCH-proteins (FIG. 7C, and data not shown), HeLa cells were transfected with expression plasmids for MARCH-I, II, III, IV, V and VIII. Surface expression of selected glycoproteins was monitored upon transfection. The following known substrates for viral K3-family members were tested: Fas (CD95) and HLA class I (MHC I), both of which are endogenously expressed in HeLa cells, as well as transfected HLA-A2.1 or CD4. […] Surface expression of the respective markers was analyzed by flow cytometry. GFP was used to identify transfected cells.
With regards to whether MHC I downregulation by MARCH-IV was only observed at very high expression levels, since the viral immune evasion genes seem to be dedicated to MHC I downregulation, MHC I expression was compared at different expression levels of MARCH-IV or KSHV-K5 by taking advantage of the tetracycline-regulatable system to partially express either protein (Gossen, M. and H. Bujard, Proc. Natl. Acad. Sci. USA 89:5547-5551, 1992). Tet-off HeLa cells were transfected with either MARCH-IV or with KSHV-K5 in the presence of increasing amounts of tetracycline to shut off transcription. […]

transferrin receptor = test: Surface expression of transferrin receptor on transfected HeLa cells, flow cytometry; type: cell-based, human; conditions: HeLa cells transfected with MARCH plasmid and GFP, 24 h post-transfection
Procedure: as §1
Cells were transfected with appropriate plasmids as well as GFP to track transfection efficiency. […]
The ability to downregulate MHC I is common to KSHV-K3, KSHV-K5, MHV68-K3 and MV-M153R (Coscoy and Ganem, 2000, supra; Guerin et al., 2002, supra; Ishido et al., 2000b supra; Stevenson et al., 2000, supra). […] Since only low copy numbers were detected in HeLa cells for transcripts corresponding to each of the MARCH-proteins (FIG. 7C, and data not shown), HeLa cells were transfected with expression plasmids for MARCH-I, II, III, IV, V and VIII. Surface expression of selected glycoproteins was monitored upon transfection. […] Surface expression of the respective markers was analyzed by flow cytometry. […]

ubiquitin = test: In vitro ubiquitination assay with GST-fused RING-CH (PHD) domains, E1, E2 panel, anti-ubiquitin immunoblot; type: biochemical; conditions: for ubiquitin ligase activity with UbCH5a: E2 = UbCH5a; for ubiquitin ligase activity with MmUbc6: E2 = murine MmUbc6
Procedure: Ubiquitination assay. UbCH2 and UbCH3 were obtained from Boston Biochem. (His)6-UbCH5a and GST fusion proteins were expressed in BL21-DE3 cells (Stratagene) and BL21 cells (Amersham), respectively, and purified as previously described (Boutell, C., S. Sadis and R. D. Everett, J. Virol. 76:841-850, 2002; Tiwari, S. and A. M. Weissman, J. Biol. Chem. 276:16193-16200, 2001). Purified E3 proteins were stored at 4° C., and E2 proteins were stored at −80° C. In vitro reaction mixtures (20 μl total) included: 50 nM rabbit E1 (Boston Biochem), 28 μM Ubiquitin, 5 mM ATP, 50 mM Tris-HCl pH 7.5, 50 mM NaCl, and 2 mM DTT. E2 enzymes were used at concentrations varying from 0.1 to 2.3 μM, and E3 concentrations ranged from 3 to 30 μM. After 90 minutes of incubation at 30° C., reactions were stopped by boiling in SDS sample buffer. Samples were electrophoresed through 12% polyacrylamide SDS gels and blotted using anti-ubiquitin mouse antibody, P4D1 (Santa Cruz Biotech).
In vitro reaction mixtures (20 μl total) included: 50 nM rabbit E1 (Boston Biochem), 28 μM Ubiquitin, 10 mM ATP, 50 mM Tris-HCl pH 7.5, 50 mM NaCl, and 2 mM DTT. E2 enzymes were used at concentrations varying from 0.7 to 2.3 μM, and E3 concentrations ranged from 3 to 25 μM. After 90 minutes of incubation at 30° C., reactions were stopped by addition of 4×reducing sample buffer. Samples were electrophoresed through 12% SDS gels and blotted using anti-ubiquitin mouse antibody (Santa Cruz Biotech).
To examine if the RING-CH domains of MARCH-I and MARCH-II would act as ubiquitin ligases in vitro, DNA fragments encoding the amino-terminal RING-CH-domain of both proteins were fused to Glutathione-S-transferase. The resulting constructs were sequence confirmed and expression of GST-MARCH protein verified by immunoblot. The GST-fusion protein was expressed and purified from E. coli cultures using Glutathione-columns. The ICP0-RING-domain was also purified, in parallel with the MARCH-I and MARCH-II constructs. A panel of E2 enzymes was either purchased from commercial sources or purified either by nickel-chelate chromatography or on glutathione columns. All E2-enzymes formed mercapto-ethanol-sensisitve complexes with ubiquitin thus showing ubiquitin conjugating activity. Purified ubiquitin and E1 was obtained from commercial sources.
To examine if the RING-CH domains of MARCH proteins act as ubiquitin ligases in vitro, a DNA fragment encoding the amino-terminal RING-CH-domains of MARCH-I, II, IV and VIII were fused to Glutathione-S-transferase (GST) for bacterial expression. The GST-fusion proteins were purified from E. coli cultures using Glutathione-sepharose-columns. Approximately thirty E2 proteins are found in the human genome compared to only one E1 enzyme (Pickart, 2001, supra). […] The specificity and selectivity of E3s with respect to E2s, however, is not well characterized. To cover a spectrum of E2s, a panel of E2 enzymes (Mansouri et al., 2003, supra) was acquired. The various E2 enzymes were incubated with or without the RING-CH-GST fusions in the presence of ubiquitin, ATP, E1. The formation of multiubiquitin-adducts was examined by immunoblotting with antibodies against ubiquitin.

[1] = tested on: Fas (CD95), MHC I, HLA-A2.1, CD4, transferrin receptor, B7.1; test: Surface glycoprotein panel on transfected HeLa cells, flow cytometry; type: cell-based, human; conditions: HeLa cells transfected with MARCH plasmid
Procedure: as §1
The ability to downregulate MHC I is common to KSHV-K3, KSHV-K5, MHV68-K3 and MV-M153R (Coscoy and Ganem, 2000, supra; Guerin et al., 2002, supra; Ishido et al., 2000b supra; Stevenson et al., 2000, supra). Additional substrates are ICAM-1 and B7.2 (but not B7.1) for KSHV-K5, as well as CD95 and CD4 for M153R (Coscoy and Ganem, 2001, supra; Guerin et al., 2002, supra; Ishido et al., 2000a, supra; Mansouri et al., 2003, supra). Since only low copy numbers were detected in HeLa cells for transcripts corresponding to each of the MARCH-proteins (FIG. 7C, and data not shown), HeLa cells were transfected with expression plasmids for MARCH-I, II, III, IV, V and VIII. Surface expression of selected glycoproteins was monitored upon transfection. […] Surface expression of the respective markers was analyzed by flow cytometry. […]

HLA-A2.1 = test: Surface expression of co-transfected HLA-A2.1 constructs on HeLa cells, flow cytometry; type: cell-based, human
Procedure: as §1, §2
The most likely targets for ubiquitination on transmembrane glycoproteins are lysines in the cytoplasmic tail. To examine the role of lysines for MHC I and CD4 downregulation by MARCH-IV, a panel of constructs derived from the human MHC I molecule HLA-A2.1 and a lysine-deleted version of CD4 (Mansouri et al., 2003, supra) were used. In addition to MARCH-IV, MARCH-VIII was included in this analysis since it reduced HLA-A2.1 surface expression (FIG. 10A). […] To rule out the possibility that these mutations changed the target molecules in such a way that they are no longer recognized by MARCH-IV or VIII, a lysine residue into a HA-tag at the carboxyterminal end of HLA-A2.1 was introduced.

Molecule	surface expression of MHC I (HLA class I (MHC I))	surface expression of transferrin receptor (TfR) (transferrin receptor)	ubiquitin ligase activity with UbCH5a (ubiquitin)	ubiquitin ligase activity with MmUbc6 (ubiquitin)	also measured
B1	no effect	reduced the surface levels of transferring receptor; also recorded: Some reduction; also recorded: strong downregulation	more active	only active with MmUbc6	surface expression of MHC I (HLA class I (MHC I); listed as MARCH I): No significant MHC I downregulation; formation of high molecular weight ubiquitinated complexes with the E2 enzymes tested (ubiquitin; GST-RING-CH fusion, E2 panel overall): less active with most E2 enzymes tested
B2					reduction in surface levels of any of the glycoproteins of the panel [1]: No reduction in surface levels
B3	reduced the surface expression of MHC I; also recorded: down regulated	almost complete elimination; also recorded: down regulated			downregulation of HLA-A2.1 with a lysine re-introduced into the C-terminal HA-tag (HLA-A2.1; HeLa cells): restored downregulation; surface expression of transfected HLA-A2.1 (HLA-A2.1; HeLa cells co-transfected with HLA-A2.1 and MARCH plasmid): reduced; downregulation of HLA-A2.1 with lysines removed from the tail (HLA-A2.1; HeLa cells, lysine-less HLA-A2.1 construct): resistant
B4	downregulates MHC I				
B5			promoted the formation of high-molecular weight complexes	some activity	
